Assay results as given in the Immune Epitope Database (IEDB).

Assays:
HLA-A*02:11 [1] = assay: IEDB peptide-MHC binding, purified MHC/competitive/fluorescence; filed as Kd, often an IC50 or EC50 that approximates it; ≥ and ≤ were set here for values at or beyond the usual limits of such assays
HLA-A*24:03 = assay: as above
HLA-B*57:01 [2] = assay: as above
HLA-A*02:19 [3] = assay: as above
HLA-A*02:01 [4] = assay: as above
HLA-B*46:01 [5] = assay: as above
HLA-A*03:01 [6] = assay: as above
HLA-A*02:16 [7] = assay: as above
HLA-B*18:01 = assay: as above
HLA-A*02:12 [8] = assay: as above
HLA-B*27:03 [9] = assay: as above
HLA-B*39:01 [10] = assay: as above
HLA-A*26:01 [11] = assay: as above
HLA-A*02:03 [12] = assay: as above
HLA-B*15:02 = assay: as above
HLA-A*02:11 [13] = assay: IEDB peptide-MHC binding, purified MHC/direct/fluorescence; filed as Kd, often an IC50 or EC50 that approximates it; ≥ and ≤ were set here for values at or beyond the usual limits of such assays; conditions: source organism: Escherichia coli O157:H7 str. EC869
HLA-B*35:01 = assay: as above; conditions: source organism: Escherichia coli O157:H7 str. EC869
HLA-B*57:01 [14] = assay: as above; conditions: source organism: Escherichia coli O157:H7 str. EC869
HLA-A*02:19 [15] = assay: as above; conditions: source organism: Escherichia coli O157:H7 str. EC869
HLA-A*68:02 = assay: as above; conditions: source organism: Escherichia coli O157:H7 str. EC869
HLA-A*02:01 [16] = assay: as above; conditions: source organism: Escherichia coli O157:H7 str. EC869
HLA-A*69:01 [17] = assay: as above; conditions: source organism: Escherichia coli O157:H7 str. EC869
HLA-B*46:01 [18] = assay: as above; conditions: source organism: Escherichia coli O157:H7 str. EC869
HLA-A*03:01 [19] = assay: as above; conditions: source organism: Escherichia coli O157:H7 str. EC869
HLA-A*02:16 [20] = assay: as above; conditions: source organism: Escherichia coli O157:H7 str. EC869
HLA-A*02:12 [21] = assay: as above; conditions: source organism: Escherichia coli O157:H7 str. EC869
HLA-B*27:03 [22] = assay: as above; conditions: source organism: Escherichia coli O157:H7 str. EC869
HLA-B*15:01 [23] = assay: as above; conditions: source organism: Escherichia coli O157:H7 str. EC869
HLA-B*51:01 [24] = assay: as above; conditions: source organism: Escherichia coli O157:H7 str. EC869
HLA-B*39:01 [25] = assay: as above; conditions: source organism: Escherichia coli O157:H7 str. EC869
HLA-A*26:01 [26] = assay: as above; conditions: source organism: Escherichia coli O157:H7 str. EC869
HLA-A*02:03 [27] = assay: as above; conditions: source organism: Escherichia coli O157:H7 str. EC869
HLA-B*07:02 [28] = assay: as above; conditions: source organism: Escherichia coli O157:H7 str. EC869
HLA-A*69:01 [29] = assay: IEDB peptide-MHC binding, purified MHC/competitive/fluorescence; filed as Kd, often an IC50 or EC50 that approximates it; ≥ and ≤ were set here for values at or beyond the usual limits of such assays; conditions: source organism: Human immunodeficiency virus type 1 (ELI ISOLATE)
HLA-A*02:06 = assay: as above
HLA-A*11:01 = assay: IEDB peptide-MHC binding, purified MHC/direct/fluorescence; filed as Kd, often an IC50 or EC50 that approximates it; ≥ and ≤ were set here for values at or beyond the usual limits of such assays
HLA-A*31:01 = assay: IEDB peptide-MHC binding, purified MHC/competitive/fluorescence; filed as Kd, often an IC50 or EC50 that approximates it; ≥ and ≤ were set here for values at or beyond the usual limits of such assays
HLA-B*07:02 [30] = assay: as above; conditions: source organism: Mycobacterium tuberculosis variant bovis BCG str. Pasteur 1173P2
HLA-B*73:01 = assay: as above; conditions: source organism: Clostridium novyi NT
HLA-A*29:02 = assay: as above; conditions: source organism: Salmonella enterica subsp. enterica serovar Paratyphi A str. AKU_12601
HLA-B*15:17 = assay: as above; conditions: source organism: Salmonella enterica subsp. enterica serovar Paratyphi A str. AKU_12601
HLA-B*15:01 [31] = assay: as above
HLA-B*51:01 [32] = assay: as above
[33] = source organism: Giardia lamblia ATCC 50803
[34] = source organism: Human immunodeficiency virus type 1 (ELI ISOLATE)
[35] = source organism: Mycobacterium tuberculosis variant bovis BCG str. Pasteur 1173P2
[36] = source organism: Escherichia coli ATCC 8739
[37] = source organism: Salmonella enterica subsp. enterica serovar Paratyphi A str. AKU_12601
[38] = source organism: Vibrio cholerae 2740-80

Sequence: MARPADASM
- Kd (HLA-A*02:11 [1]; [33]): ≥ 20 µM
- Kd (HLA-A*24:03; [33]): ≥ 20 µM
- Kd (HLA-B*57:01 [2]; [33]): 0.121 µM
- Kd (HLA-A*02:19 [3]; [33]): ≥ 20 µM
- Kd (HLA-A*02:01 [4]; [33]): ≥ 20 µM
- Kd (HLA-B*46:01 [5]; [33]): 2.2 µM
- Kd (HLA-A*03:01 [6]; [33]): ≥ 20 µM
- Kd (HLA-A*02:16 [7]; [33]): ≥ 20 µM
- Kd (HLA-B*18:01; [33]): ≥ 20 µM
- Kd (HLA-A*02:12 [8]; [33]): ≥ 20 µM
- Kd (HLA-B*27:03 [9]; [33]): ≥ 20 µM
- Kd (HLA-B*39:01 [10]; [33]): ≥ 20 µM
- Kd (HLA-A*26:01 [11]; [33]): ≥ 20 µM
- Kd (HLA-A*02:03 [12]; [33]): ≥ 20 µM

Sequence: FILSGRFSY
- Kd (HLA-B*15:02; source organism: Shigella flexneri): 0.396 µM

Sequence: YGSWFGLIY
- Kd (HLA-A*02:11 [13]): ≥ 20 µM
- Kd (HLA-B*35:01): 0.006 µM
- Kd (HLA-B*57:01 [14]): ≥ 20 µM
- Kd (HLA-A*02:19 [15]): ≥ 20 µM
- Kd (HLA-A*68:02): ≥ 20 µM
- Kd (HLA-A*02:01 [16]): ≥ 20 µM
- Kd (HLA-A*69:01 [17]): ≥ 20 µM
- Kd (HLA-B*46:01 [18]): ≥ 20 µM
- Kd (HLA-A*03:01 [19]): ≥ 20 µM
- Kd (HLA-A*02:16 [20]): ≥ 20 µM
- Kd (HLA-A*02:12 [21]): ≥ 20 µM
- Kd (HLA-B*27:03 [22]): ≥ 20 µM
- Kd (HLA-B*15:01 [23]): 0.18 µM
- Kd (HLA-B*51:01 [24]): ≥ 20 µM
- Kd (HLA-B*39:01 [25]): ≥ 20 µM
- Kd (HLA-A*26:01 [26]): ≥ 20 µM
- Kd (HLA-A*02:03 [27]): ≥ 20 µM
- Kd (HLA-B*07:02 [28]): ≥ 20 µM

Sequence: SLGQHIYET
- Kd (HLA-A*02:19 [3]; [34]): 0.084 µM
- Kd (HLA-A*02:01 [4]; [34]): 0.012 µM
- Kd (HLA-A*69:01 [29]): ≥ 20 µM
- Kd (HLA-A*02:06; [34]): 0.011 µM
- Kd (HLA-A*02:16 [7]; [34]): 0.006 µM
- Kd (HLA-A*02:12 [8]; [34]): 0.0225 µM
- Kd (HLA-A*02:03 [12]; [34]): 0.0065 µM

Sequence: SYYCAGLKK
- Kd (HLA-A*11:01; source organism: Dengue virus 1 Singapore/S275/1990): 0.0801 µM
- Kd (HLA-A*31:01; source organism: dengue virus type 1): 1.96 µM

Sequence: SLYEKSGSV
- Kd (HLA-A*02:11 [1]; [35]): 0.0011 µM
- Kd (HLA-A*02:19 [3]; [35]): 0.13 µM
- Kd (HLA-A*02:12 [8]; [35]): 0.0341 µM
- Kd (HLA-A*02:03 [12]; [35]): ≤ 0.001 µM
- Kd (HLA-B*07:02 [30]): ≥ 20 µM

Sequence: ILRDGQRWY
- Kd (HLA-B*15:02; source organism: Yersinia pestis CO92): 0.0552 µM

Sequence: GLLDWGMQQ
- Kd (HLA-A*02:01 [4]; [36]): 0.119 µM
- Kd (HLA-A*02:06; [36]): 1.55 µM

Sequence: SRDYYRHKV
- Kd (HLA-B*73:01): 3.62 µM

Sequence: AMDTHLYFE
- Kd (HLA-A*02:11 [1]; [37]): 0.0539 µM
- Kd (HLA-A*24:03; [37]): ≥ 20 µM
- Kd (HLA-B*57:01 [2]; [37]): ≥ 20 µM
- Kd (HLA-A*02:19 [3]; [37]): ≥ 20 µM
- Kd (HLA-A*02:01 [4]; [37]): ≥ 20 µM
- Kd (HLA-B*46:01 [5]; [37]): ≥ 20 µM
- Kd (HLA-A*03:01 [6]; [37]): ≥ 20 µM
- Kd (HLA-A*29:02): ≥ 20 µM
- Kd (HLA-B*15:17): ≥ 20 µM
- Kd (HLA-B*18:01; [37]): ≥ 20 µM
- Kd (HLA-A*02:12 [8]; [37]): 0.284 µM
- Kd (HLA-B*27:03 [9]; [37]): ≥ 20 µM
- Kd (HLA-B*15:01 [31]; [37]): ≥ 20 µM
- Kd (HLA-B*51:01 [32]; [37]): ≥ 20 µM
- Kd (HLA-B*39:01 [10]; [37]): ≥ 20 µM
- Kd (HLA-A*26:01 [11]; [37]): ≥ 20 µM
- Kd (HLA-A*02:03 [12]; [37]): ≥ 20 µM

Sequence: HMLVVIRKY
- Kd (HLA-B*15:02; source organism: Clostridium botulinum A str. ATCC 3502): 0.194 µM

Sequence: IFIRTIYYH
- Kd (HLA-A*02:11 [1]; [38]): ≥ 20 µM
- Kd (HLA-A*24:03; [38]): ≥ 20 µM
- Kd (HLA-B*57:01 [2]; [38]): ≥ 20 µM
- Kd (HLA-A*02:19 [3]; [38]): ≥ 20 µM
- Kd (HLA-A*02:01 [4]; [38]): ≥ 20 µM
- Kd (HLA-B*46:01 [5]; [38]): ≥ 20 µM
- Kd (HLA-A*03:01 [6]; [38]): ≥ 20 µM
- Kd (HLA-A*02:16 [7]; [38]): ≥ 20 µM
- Kd (HLA-B*18:01; [38]): ≥ 20 µM
- Kd (HLA-A*02:12 [8]; [38]): ≥ 20 µM
- Kd (HLA-B*27:03 [9]; [38]): ≥ 20 µM
- Kd (HLA-B*15:01 [31]; [38]): ≥ 20 µM
- Kd (HLA-B*51:01 [32]; [38]): ≥ 20 µM
- Kd (HLA-B*39:01 [10]; [38]): ≥ 20 µM
- Kd (HLA-A*26:01 [11]; [38]): ≥ 20 µM
- Kd (HLA-A*02:03 [12]; [38]): ≥ 20 µM

Sequence: GLYQGIVGF
- Kd (HLA-B*15:02; source organism: Rickettsia prowazekii str. Madrid E): 0.0596 µM

Sequence: QLLDFLLAY
- Kd (HLA-B*15:02; source organism: Shigella dysenteriae Sd197): 0.0558 µM

Sequence: LTYRHKVVK
- Kd (HLA-A*11:01; source organism: West Nile virus): 0.0298 µM
- Kd (HLA-A*31:01; source organism: Japanese encephalitis virus): 0.0239 µM
